Data: US20230024461A1, “METHODS FOR DUAL DNA/PROTEIN TAGGING OF OPEN CHROMATIN” (Beth Israel Deaconess Medical Center, Inc., priority 2019, published 2023)
Entries after “also recorded” stand apart in the source; their conditions may differ.

What was measured:
GM12878 nuclei = test: Peroxidase-mediated biotin labeling after transposition, western blot; type: biochemical, human
Experimental: Western blot. Whole cell lysate was generated by resuspending cells washed with 1×PBS in RIPA (Boston BioProducts) supplemented with 1× complete EDTA-free protease inhibitor cocktail (Roche). Cells were subject to sonication via a Sonic Dismembrator 100 (Fisher Scientific) at setting 2, with 3 pulses of 15 seconds on/off on ice. Lysates were clarified by centrifugation (15,000×g, 30 minutes, 4° C.) and their concentrations quantified with detergent-compatible Bradford assay (Thermo Fisher Scientific). All Western blots were run on NuPAGE 4-12% Bis-Tris protein gels (Thermo Fisher Scientific) and transferred to […] nitrocellulose membranes (GE Healthcare). Membranes were stained with Ponceau S, blocked with 3% milk in PBS-T, and incubated overnight with primary antibody and subsequently with secondary antibody after brief washing with PBS-T. Chemiluminescence was determined by applying ECL Western Blotting detection reagent (GE Healthcare) to membranes and imaging on an Amersham Imager 600 (GE Healthcare). Membranes were stripped with Restore PLUS Stripping Buffer (Thermo Fisher Scientific); streptavidin-HRP was inactivated with 15% hydrogen peroxide. […]

HT1080 cells = test: Co-immunofluorescence/ATAC-see analysis; type: cell-based, human
Experimental: Co-immunofluorescence/ATAC-see analysis. ATAC-see was performed similarly as previously described with slight modifications (Chen et al., Nat. Methods 13:1013-1020, 2016). Enzyme and transposon DNA were mixed at a 1:1.25 enzyme:MEDS-A/B-AF647 molar ratio and incubated at room temperature for 1 hour. Adherent cells were grown on glass coverslips (Fisher Scientific, 12-540A) until 80-90% confluent, washed with 1×PBS, fixed with 1% formaldehyde (Electron Microscopy Services) in 1×PBS for 10 minutes, and washed twice with ice-cold 1×PBS. Suspension cells were washed and resuspended with 1×PBS. 50,000 cells were added to poly-lysine slides and incubated at room temperature for 1 hour in a humidified chamber. An equal volume of 2% formaldehyde was added and incubated for 10 minutes, whereupon slides were washed twice with ice-cold 1×PBS. Immobilized cells were lysed by incubation with LB1 for 3 minutes followed by LB2 for 10 minutes at room temperature. Cells were then subject to tagmentation (20% dimethylformamide, 10 mM MgCl2, 20 mM Tris-HCl pH 7.5, 33% 1×PBS, 0.01% digitonin, 0.1% Tween-20, and either 80 pmol enzyme equivalent of enzyme:DNA complex in a total volume of 100 μL for adherent cells or 10 pmol enzyme equivalent of enzyme:DNA complex in a total volume of 50 μL for suspension cells) for 30 minutes at 37° C. in a humidified chamber. Subsequently, cells were washed with 50 mM EDTA and 0.01% SDS in 1×PBS three times for 15 minute each at 55° C., lysed for 10 minutes with 0.5% Triton X-100 in 1×PBS at room temperature, and blocked with 1% BSA and 10% goat serum in PBS-T for 1 hour in a humidified chamber. Primary antibody was added to slides in 1% BSA/PBS-T and incubated at 4° C. overnight; slides were then washed and subjected to secondary antibody staining for 1 hour. Slides were washed with PBS-T three times for 15 minutes each, stained with DAPI (Sigma, 1 μg/mL) for 1 minute, washed with PBS for 10 minutes, and mounted with Fluorescence Mounting Medium (Dako). Confocal microscopy images were taken with an LSM 880 Axio Imager 2 at 63× magnification (Zeiss). Images were processed with Fiji/ImageJ v2.0.0.
Primary antibodies used were anti-RNA polymerase II CTD repeat YSPTSPS (phospho S2) (rabbit, Abcam ab5095, 1:500), anti-H3K27Ac (rabbit, Abcam ab4729, 1:500), anti-H3K9me3 (rabbit, Abcam ab8898, 1:500), anti-CCDCl2 (rabbit, Atlas Antibodies HPA060530, 1:200), anti-SNRPA (mouse, 3F9-1F7, Sigma-Aldrich WH0006626M1, 1:100). […]
Quantitative image analyses were performed with CellProfiler v3.1.5. […] Pearson correlation coefficients were determined by comparing ATAC-see pixel intensities with corresponding immunofluorescence intensity values within each ROI to assess the nucleus-to-nucleus variation in colocalization. […]

B1: TP3: Tn5 transposase-AEAAAKEAAAKA linker-APEX2 peroxidase fusion, C-terminal FLAG; amino acid SEQ ID NO: 27 (protein)
chain: MITSALHRAADWAKSVFSSAALGDPRRTARLVNVAAQLAKYSGKSITISSEGSKAMQEGAYRFIRNPNVSAEAIRKAGAMQTVKLAQEFPELLAIEDTTSLSYRHQVAEELGKLGSIQDKSRGWWVHSVLLLEATTFRTVGLLHQEWWMRPDDPADADEKESGKWLAAAATSRLRMGSMMSNVIAVCDREADIHAYLQDKLAHNERFVVRSKHPRKDVESGLYLYDHLKNQPELGGYQISIPQKGVVDKRGKRKNRPARKASLSLRSGRITLKQGNITLNAVLAEEINPPKGETPLKWLLLTSEPVESLAQALRVIDIYTHRWRIEEFHKAWKTGAGAERQRMEEPDNLERMVSILSFVAVRLLQLRESFTPPQALRAQGLLKEAEHVESQSAETVLTPDECQLLGYLDKGKRKRKEKAGSLQWAYMAIARLGGFMDSKRTGIASWGALWEGWEALQSKLDGFLAAKDLMAQGIKIAEAAAKEAAAKAGKSYPTVSADYQDAVEKAKKKLRGFIAEKRCAPLMLRLAFHSAGTFDKGTKTGGPFGTIKHPAELAHSANNGLDIAVRLLEPLKAEFPILSYADFYQLAGVVAVEVTGGPKVPFHPGREDKPEPPPEGRLPDPTKGSDHLRDVFGKAMGLTDQDIVALSGGHTIGAAHKERSGFEGPWTSNPLIFDNSYFTELLSGEKEGLLQLPSDKALLSDPVFRPLVDKYAADEDAFFADYAEAHQKLSELGFADADYKDDDDK
modifications: C-terminal FLAG
- biotinylation signal (streptavidin) (GM12878 nuclei): highest signals
- ATAC-see correlation with H3K9me3 immunofluorescence (HT1080 cells; marker of transcriptionally inactive chromatin): poorly correlating; also recorded: similarly poor correlations
- ATAC-see correlation with H3K27Ac and RNAPII S2P immunofluorescence signal (HT1080 cells; markers of transcriptionally active chromatin): strongly correlating; also recorded: similarly positive correlations
